Data: patent publication US20210317201A1 (Boehringer Ingelheim, published 2021)
“And” between values parts separate entries of the source, which are not always exact repeats. Equal values may be shown once.

T1: recombinant human IL-23 (human, UniProt P29460 23-328)
T1 sequence 1: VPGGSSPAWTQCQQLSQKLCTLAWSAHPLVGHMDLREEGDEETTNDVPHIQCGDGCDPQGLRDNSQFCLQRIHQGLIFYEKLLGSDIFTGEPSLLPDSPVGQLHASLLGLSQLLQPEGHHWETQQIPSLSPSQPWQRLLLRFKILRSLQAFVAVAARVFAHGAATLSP
T1 sequence 2: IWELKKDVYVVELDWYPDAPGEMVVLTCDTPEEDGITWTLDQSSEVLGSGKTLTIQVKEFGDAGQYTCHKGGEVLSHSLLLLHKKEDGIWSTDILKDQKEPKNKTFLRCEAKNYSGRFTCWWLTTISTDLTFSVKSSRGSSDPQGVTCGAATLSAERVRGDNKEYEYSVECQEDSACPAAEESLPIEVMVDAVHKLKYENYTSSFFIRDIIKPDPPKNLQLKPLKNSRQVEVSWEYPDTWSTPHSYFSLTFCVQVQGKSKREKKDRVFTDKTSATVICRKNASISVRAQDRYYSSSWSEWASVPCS

T2: natural human IL-23 from activated THP-1 cells (human, UniProt P29460 23-328)
T2 sequence 1: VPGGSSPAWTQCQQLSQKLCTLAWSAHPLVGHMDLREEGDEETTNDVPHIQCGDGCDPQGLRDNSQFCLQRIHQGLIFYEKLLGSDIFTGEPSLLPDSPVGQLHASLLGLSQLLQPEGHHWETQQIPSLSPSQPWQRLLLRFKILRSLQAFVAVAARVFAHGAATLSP
T2 sequence 2: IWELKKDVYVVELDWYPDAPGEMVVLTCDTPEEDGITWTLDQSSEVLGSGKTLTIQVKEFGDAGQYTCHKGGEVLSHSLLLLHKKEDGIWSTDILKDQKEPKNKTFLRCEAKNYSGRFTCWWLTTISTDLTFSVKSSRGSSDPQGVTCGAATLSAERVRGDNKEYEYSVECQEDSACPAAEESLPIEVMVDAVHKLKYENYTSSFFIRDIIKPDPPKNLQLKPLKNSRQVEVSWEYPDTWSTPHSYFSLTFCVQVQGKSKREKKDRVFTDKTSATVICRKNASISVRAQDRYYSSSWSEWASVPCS


How the values were obtained:
recombinant human IL-23 [1] = target: T1, recombinant human IL-23; experiment: cell-based or functional assay
recombinant human IL-23 [2] = target: T1, recombinant human IL-23; experiment: BLI, Fortebio Octet; hybridoma-derived antibody
Description: Kinetics and binding affinities were measured using the Fortebio OCTET® (Fortebio, Menlo Park, Calif.) using material generated from hybridoma following single column purification.

[3] = target: T2, natural human IL-23 from activated …; experiment: cell-based or functional assay

Row | IC50, IL-23 stimulated IL-17 production from mouse splenocytes (recombinant human IL-23 [1]) | Kd (recombinant human IL-23 [2]) [nM] | koff (recombinant human IL-23 [2]) [s⁻¹] | kon (recombinant human IL-23 [2]) [M⁻¹ s⁻¹] | IC50, IL-23 stimulated IL-17 production from mouse splenocytes [3] | Binder
1 | 1.41 nM | 0.0992 | 5.24e-06 | 52900 |  | 73H10 (antibody, V domains shown, Mouse monoclonal antibody from hybridoma; also called 73H10Vk; 73H10VH) VH: EVQLQQSGPELVKPGASVKMSCKASGYTFTRYVMHWVKQKPGQGLEWIGYINPYNDVTKYNEKFKGKATLTSDRSSSTAYMKLSSLTSEDSAVYYCARNWDVPYWGQGTLITVSA VL: DIQMTQSPVFLSASVGETVTITCRASENIDSYLAWYQQKQGKSPQLLVFAARNLADGVPSRFSGSGSGTQYSLKINRMQSEDVARYYCQHYYSTPFTFGSGTKLEIE
2 | 1.35 nM | 0.0683 | 2.09e-06 | 30600 |  | 74H3 (antibody, V domains shown, Mouse monoclonal antibody from hybridoma; also called 74H3Vk; 74H3VH) VH: EVQLQQSGPELVKPGASVKMSCKASGYTFTRYLMHWVKQKPGQGLEWIGYINPYNDGTKYNERFKGKATLTSDKSSSTAYMELSSLTSEDSAVYYCARNWDVPYWGQGTLVTVSA VL: DIQMTQSPASLSASVGETVIFTCRASENIDSYLAWYQQKQGKSPQLLVYAATNLADGVPSRFSGSGSGTQYSLKINSLQSEDVARYYCLHYYSTPFTFGSGTELEIK
3 | 0.404 nM |  |  |  | 0.095 nM and 0.102 nM | Chimeric 24A5 (antibody, V domains shown) VH: EVQLQQSGPELVKPGASVKMSCKASGYTFTTSIMHWVKQKPGQGLEWIGYINPYDDVTKYNEKFKGKATLTSDKSSSTAYMELSSLTSEDSAVYYCVRRWDEAYWGQGTLVTVSA VL: DIVMTQSPATLSVTPGNRVSLSCRASQSISDYLHWYQQKSHESPRLLIKYASQSISGIPSRFSGSGSGSNFTLSINSVEPEDVGVYYCQNGHSFPFTFGSGTKLEIK
4 | 0.1 nM |  |  |  |  | Chimeric 22E2 (antibody, V domains shown) VH: EVQLQQSGPELVKPGASVKMSCKASGYTFTSSIIHWVKQRPGQGLEWIGYINPYDDVTKYNEKFKGKATLTSDKSSSTAYMELSSLTSEDSAVYYCARRWDESYWGQGTLVTVSA VL: DIVMTQSPATLSVTPGDRVSLSCRASQSISVYLHWYQQKSPESPRLLIKYASQSISGIPSRFSGSGSGSDFTLSINSVEPEDVGVYYCQNGHSFPFTFGSGTKLEIK

The remaining lines, values behind:

Row | Binder | IC50, IL-23 stimulated IL-17 production from mouse splenocytes (recombinant human IL-23 [1]) | Kd (recombinant human IL-23 [2]) [nM] | koff (recombinant human IL-23 [2]) [s⁻¹] | kon (recombinant human IL-23 [2]) [M⁻¹ s⁻¹] | IC50, IL-23 stimulated IL-17 production from mouse splenocytes [3]
5 | 26F7 (antibody, V domains shown, Mouse monoclonal antibody from hybridoma; also called 26F7Vk; 26F7VH) VH: EVQLQQSGPELVKPGASVKISCKASGYTFTDYYMNWVRQSHGESLEWIGDFNHNNDVITYNPKFKGKVTLTVEKSSTTAYMELRSLSSEDSAVYYCARGLRGYYAMDYWGQGTSVTVSS VL: DIVLTQSPASLAVSLGQRATISCRASKSVRFSDYFYMHWYQQKPGQPPKLLIYLASNLESGVPARFSGSGSGTDFTLNIHPVEEEDAATYYCQNSRELPYTFGGGTKLEIK | 0.027 nM | 0.0281 | 1.34e-05 | 476000 | 
6 | 43F5 (antibody, V domains shown, Mouse monoclonal antibody from hybridoma; also called 43F5vk; 43F5vh) VH: EVQLQQSGPELVKPGASVKISCRASGYSFTGYYMNWVKQSPEKSLEWIGEIIPTTGGTSYNQKFKAKATLTVDKSSSTAYMQLKSLTSEDSAVYYCARESGGFYWYFDVWGTGTTVTVSS VL: DVVMTQSPLSLPVSLGDQASISCRSSQSLVHSNGNTYLHWYLLKPGQSPKLLIYKVSNRFSGVPDRFSGSGSGTDFTLKISRVEAEDLGVYFCSQSTHVPYTFGGGTKLEIK |  | 0.0346 | 5.96e-06 | 172000 | 8 nM
7 | 2D1 (antibody, V domains shown, Mouse monoclonal antibody from hybridoma; also called 2D1vk; 2D1vh) VH: QVQLKESGPGLVAPSQSLSITCTVSGFSLTTYAISWVRQSPGKGLEWLGVIWTGGGTKYNSALKSRLSISKDNSKSQVFLKMNSLQTDDTARYYCARKDYNYGGAMDYWGQGTSVTVSS VL: DIVLTQSPGSLAVSLGQRATISCRTSESVYSYGQNFIHWYQQKPGQPPKLLIYRASNLESGIPARFSGSGSRTDFTLTMNPVEADDVATYYCQQTNEDPYTFGGGTKLEIR |  | < 0.001 | < 1e-06 |  | 2.34 nM and 1.91 nM and 1.6 nM
8 | 18C4 (antibody, V domains shown, Mouse monoclonal antibody from hybridoma; also called 18C4vk; 18C4vh) VH: EVQLQQSGPEVVKPGASVKMSCKASGYTFTSSVIHWVKQKAGQGLEWIGYINPYNDGTKYNEKFKGKATLTSDRSSSTAYMELSSLTSEDSAVYYCTRRLDEAYWGQGTLVTVSA VL: DIVMTQSPATLSVTPGDRVSLSCRASQSISEYLHWYQQKSHESPRLLIKYASQSISGIPSRFSGSGSGSDFTLSINSVEPEDVGVYYCQNGHSFPFTFGSGTKLEIK | 0.471 nM | 0.00557 | 2.14e-06 | 384000 | 
9 | 24A5 (antibody, V domains shown, Mouse monoclonal antibody from hybridoma; also called 24A54vk; 24A5vh) VH: EVQLQQSGPELVKPGASVKMSCKASGYTFTTSIMHWVKQKPGQGLEWIGYINPYDDVTKYNEKFKGKATLTSDKSSSTAYMELSSLTSEDSAVYYCVRRWDEAYWGQGTLVTVSA VL: DIVMTQSPATLSVTPGNRVSLSCRASQSISDYLHWYQQKSHESPRLLIKYASQSISGIPSRFSGSGSGSNFTLSINSVEPEDVGVYYCQNGHSFPFTFGSGTKLEIK | 0.022 nM and 0.037 nM | 0.0226 | 4.57e-06 | 202000 | 0.085 nM and 0.031 nM
10 | 18E5 (antibody, V domains shown, Mouse monoclonal antibody from hybridoma; also called 18E5vk; 18E5vh) VH: EVQLQQSGPELVKPGAAVKMSCKASGYTFTRYLIHWVKQKPGQGLEWIGYINPYNDGTKYNEKFKGKATLTSDKSSSTAYMELSSLTSEDSAVYYCTSNWDLDYWGQGTTLTVSS VL: DIVMTQSPATLSVTPGDRVSLSCRASQSISDYLYWYQQKSHESPRLLIKFASQSISGIPSRFTGSGSGSDFTLSIDSVEPDDVGVFFCQNGHSFPFTFGGGTKLEIK |  | 0.00793 | 2.61e-06 | 329000 | 0.009 nM and 0.013 nM
11 | 18D3 (antibody, V domains shown, Mouse monoclonal antibody from hybridoma; also called 18D3vk; 18D3vh) VH: EVQLQQSGPELVKPGASVKMSCKASGYTFTRYLIHWVKQKPGQGLEWIGYINPYNDGTKYNEKFKGKATLTSDKSSSTAYMELSSLTSEDSAVYYCTSNWDLDYWGQGTTLTVSS VL: DIVMTQSPATLSVTPGDRVSLSCRASQSISDYLYWYQQKSHESPRLLIKFASQSISGIPSRFTGSGSGSDFTLSIDSVEPDDVGVFFCQNGHSFPFTFGGGTKLEIK | 0.234 nM | 0.00678 | 2.16e-06 | 319000 | 
12 | 22E2 (antibody, V domains shown, Mouse monoclonal antibody from hybridoma; also called 22E2vk; 22E2vh) VH: EVQLQQSGPELVKPGASVKMSCKASGYTFTSSIIHWVKQRPGQGLEWIGYINPYDDVTKYNEKFKGKATLTSDKSSSTAYMELSSLTSEDSAVYYCARRWDESYWGQGTLVTVSA VL: DIVMTQSPATLSVTPGDRVSLSCRASQSISVYLHWYQQKSPESPRLLIKYASQSISGIPSRFSGSGSGSDFTLSINSVEPEDVGVYYCQNGHSFPFTFGSGTKLEIK | 0.061 nM and 0.13 nM | 1.02 | 0.000353 | 346000 | 
13 | 20E8 (antibody, V domains shown, Mouse monoclonal antibody from hybridoma; also called 20E8vk; 20E8vh) VH: EVQLQQSGPELVKPGASVKMSCKASGYTFTSSVMHWVKQKAGQGLEWIGYINPYNDGTQYNEKFKGKATLTSDKFSSTAYMELSSLTSEDSAVYYCTRRLDEAYWGQGTLVTVSA VL: DIVMTQSPATLSVTPGDRVSLSCRASQSISEYLHWYQQKSHESPRLLIKYASQSISGIPSRFSGSGSGSDFTLSINSVEPEDVGVYYCQNGHSFPFTFGSGTKLEIK |  | 0.638 | 0.000269 | 421000 | 0.438 nM and 0.561 nM
